Values of other authors in PMC11083953.

What was measured:
CD38 (Homo sapiens) = CD38 (Homo sapiens) (UniProt P28907)
CD20 (Homo sapiens) = CD20 (Homo sapiens) (UniProt P11836)
Chain of CD20 (Homo sapiens) (P11836 whole entry): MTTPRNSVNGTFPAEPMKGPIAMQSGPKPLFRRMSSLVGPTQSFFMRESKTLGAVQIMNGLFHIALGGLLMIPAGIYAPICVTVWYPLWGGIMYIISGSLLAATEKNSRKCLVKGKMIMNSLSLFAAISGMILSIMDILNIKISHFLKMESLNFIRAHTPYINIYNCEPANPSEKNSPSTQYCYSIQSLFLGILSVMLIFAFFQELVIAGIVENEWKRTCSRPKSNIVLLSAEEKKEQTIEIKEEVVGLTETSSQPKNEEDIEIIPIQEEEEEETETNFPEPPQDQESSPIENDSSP

Substance	Kd (CD38 (Homo sapiens))	Kd (CD20 (Homo sapiens))
daratumumab	4.36 nM	
rituximab		8 nM
